According to paper PMC10415282, “High resolution cryo-EM and crystallographic snapshots of the actinobacterial two-in-one 2-oxoglutarate dehydrogenase” (Nature Communications, 2023):

Experiments:
[1] = target: the molecule itself; assay: AUC; sedimentation velocity, 20 °C, 30,000 rpm, seven concentrations from 4 mg/ml to 0.0625 mg/ml, 20 mM Hepes pH 7.5, 500 mM NaCl
[2] = target: the molecule itself; assay: crystal structure; OdhAΔ97 (26 mg/ml) with 5 mM CoASH; 0.1 M Hepes-NaOH pH 7.5, 5% PEG 4000, 30% MPD; 2.5 Å; protomers related by crystallographic symmetry

Protein | stoichiometry N [1] | stoichiometry N [2]
Corynebacterium glutamicum OdhA, full-length (residues 1-1221) (enzyme, Corynebacterium glutamicum ATCC13032, UniProt Q8NRC3 1-1221, looked up, OdhA (E2o succinyltransferase and E1o 2-oxoglutarate decarboxylase domains on one chain), C. glutamicum ATCC13032, Uniprot Q8NRC3, residues 1-1221; TEV site (ENLYFQG) between the vector's His6-tag and the N-terminus; In the maps the chain is traced from Pro102; also called corynebacterial OdhA; source: E. coli BL21(DE3), purified (Ni-NTA, TEV cleavage, SEC); not shown: His6, N-terminal, cleaved) MSSASTFGQNAWLVDEMFQQFQKDPKSVDKEWRELFEAQGGPNTTPATTEAQPSAPKESAKPAPKAAPAAKAAPRVETKPADKTAPKAKESSVPQQPKLPEPGQTPIRGIFKSIAKNMDISLEIPTATSVRDMPARLMFENRAMVNDQLKRTRGGKISFTHIIGYAMVKAVMAHPDMNNSYDVIDGKPTLIVPEHINLGLAIDLPQKDGSRALVVAAIKETEKMNFSEFLAAYEDIVARSRKGKLTMDDYQGVTVSLTNPGGIGTRHSVPRLTKGQGTIIGVGSMDYPAEFQGASEDRLAELGVGKLVTITSTYDHRVIQGAVSGEFLRTMSRLLTDDSFWDEIFDAMNVPYTPMRWAQDVPNTGVDKNTRVMQLIEAYRSRGHLIADTNPLSWVQPGMPVPDHRDLDIETHNLTIWDLDRTFNVGGFGGKETMTLREVLSRLRAAYTLKVGSEYTHILDRDERTWLQDRLEAGMPKPTQAEQKYILQKLNAAEAFENFLQTKYVGQKRFSLEGAEALIPLMDSAIDTAAGQGLDEVVIGMPHRGRLNVLFNIVGKPLASIFNEFEGQMEQGQIGGSGDVKYHLGSEGQHLQMFGDGEIKVSLTANPSHLEAVNPVMEGIVRAKQDYLDKGVDGKTVVPLLLHGDAAFAGLGIVPETINLAKLRGYDVGGTIHIVVNNQIGFTTTPDSSRSMHYATDYAKAFGCPVFHVNGDDPEAVVWVGQLATEYRRRFGKDVFIDLVCYRLRGHNEADDPSMTQPKMYELITGRETVRAQYTEDLLGRGDLSNEDAEAVVRDFHDQMESVFNEVKEGGKKQAEAQTGITGSQKLPHGLETNISREELLELGQAFANTPEGFNYHPRVAPVAKKRVSSVTEGGIDWAWGELLAFGSLANSGRLVRLAGEDSRRGTFTQRHAVAIDPATAEEFNPLHELAQSKGNNGKFLVYNSALTEYAGMGFEYGYSVGNEDSIVAWEAQFGDFANGAQTIIDEYVSSGEAKWGQTSKLILLLPHGYEGQGPDHSSARIERFLQLCAEGSMTVAQPSTPANHFHLLRRHALSDLKRPLVIFTPKSMLRNKAAASAPEDFTEVTKFQSVINDPNVADAAKVKKVMLVSGKLYYELAKRKEKDGRDDIAIVRIEMLHPIPFNRISEALAGYPNAEEVLFVQDEPANQGPWPFYQEHLPELIPNMPKMRRVSRRAQSSTATGVAKVHQLEEKQLIDEAFEA | 6 | –
OdhAΔ97 (C. glutamicum OdhA residues 98-1221) (domain or fragment, Corynebacterium glutamicum ATCC13032, UniProt Q8NRC3 98-1221, looked up, OdhA, C. glutamicum ATCC13032, Uniprot Q8NRC3, residues 98-1221 (without the flexible N-terminal segment); Crystallised with 5 mM CoASH; source: E. coli BL21(DE3), purified (Ni-NTA, TEV cleavage, SEC); not shown: His6, N-terminal, cleaved) KLPEPGQTPIRGIFKSIAKNMDISLEIPTATSVRDMPARLMFENRAMVNDQLKRTRGGKISFTHIIGYAMVKAVMAHPDMNNSYDVIDGKPTLIVPEHINLGLAIDLPQKDGSRALVVAAIKETEKMNFSEFLAAYEDIVARSRKGKLTMDDYQGVTVSLTNPGGIGTRHSVPRLTKGQGTIIGVGSMDYPAEFQGASEDRLAELGVGKLVTITSTYDHRVIQGAVSGEFLRTMSRLLTDDSFWDEIFDAMNVPYTPMRWAQDVPNTGVDKNTRVMQLIEAYRSRGHLIADTNPLSWVQPGMPVPDHRDLDIETHNLTIWDLDRTFNVGGFGGKETMTLREVLSRLRAAYTLKVGSEYTHILDRDERTWLQDRLEAGMPKPTQAEQKYILQKLNAAEAFENFLQTKYVGQKRFSLEGAEALIPLMDSAIDTAAGQGLDEVVIGMPHRGRLNVLFNIVGKPLASIFNEFEGQMEQGQIGGSGDVKYHLGSEGQHLQMFGDGEIKVSLTANPSHLEAVNPVMEGIVRAKQDYLDKGVDGKTVVPLLLHGDAAFAGLGIVPETINLAKLRGYDVGGTIHIVVNNQIGFTTTPDSSRSMHYATDYAKAFGCPVFHVNGDDPEAVVWVGQLATEYRRRFGKDVFIDLVCYRLRGHNEADDPSMTQPKMYELITGRETVRAQYTEDLLGRGDLSNEDAEAVVRDFHDQMESVFNEVKEGGKKQAEAQTGITGSQKLPHGLETNISREELLELGQAFANTPEGFNYHPRVAPVAKKRVSSVTEGGIDWAWGELLAFGSLANSGRLVRLAGEDSRRGTFTQRHAVAIDPATAEEFNPLHELAQSKGNNGKFLVYNSALTEYAGMGFEYGYSVGNEDSIVAWEAQFGDFANGAQTIIDEYVSSGEAKWGQTSKLILLLPHGYEGQGPDHSSARIERFLQLCAEGSMTVAQPSTPANHFHLLRRHALSDLKRPLVIFTPKSMLRNKAAASAPEDFTEVTKFQSVINDPNVADAAKVKKVMLVSGKLYYELAKRKEKDGRDDIAIVRIEMLHPIPFNRISEALAGYPNAEEVLFVQDEPANQGPWPFYQEHLPELIPNMPKMRRVSRRAQSSTATGVAKVHQLEEKQLIDEAFEA | – | 6
